In publication PMC2873776 (Biochemistry, 2010):

Molecular target: the molecule itself
Assay: pulsed dipolar ESR spectroscopy

B1: Tm14C N125C homodimer, spin-labeled (domain or fragment)
chain: RRIEEVKERFVNLNRLFQELVGDFQAKSDQLVSVIQDMEKISENIMEELKKSGTNVDQIVERVKEASSQIGETLENIRSIEKLIQCIMRIARETNILALNATIEAARAGEAGKGFMIVANEVQNLSNETNEVTKQIVEKAREILESSQRSLENLEFMANLFETVGKTLQNMVRF
modifications: MTSSL nitroxide spin label on Cys125
  stoichiometry N: 2
